The results in this text go back to patent US9067985B2, “Bacteriorhodopsin fusion membrane protein expression system” (Academia Sinica, priority 2012, dated 2015).

The nature of this data set: Phosphatase assay (Malachite Green) of purified UppP. Type of data set: biochemical, E. coli. The note with it: 100 μM Fpp as model substrate, 37° C., 0.2% DDM, pH 7.5. How it is done:
UppP activity was determined by the Malachite Green assay using Phosphate Colorimetric Assay Kit purchased from BioVision. The enzymatic assay reaction mixture (200 μl) containing 50 mM Tris-HCl, pH 7.5, 150 mM NaCl, 0.2% DDM, 100 μM substrate (Fpp) and appropriately diluted purified UppP was incubated at 37° C. The reaction was quenched by adding 30 μl of Malachite Green Reagent and then the tubes were incubated for 30 min at room temperature. After incubation, the reaction mixture was transferred to 96-well plates and the released phosphate that reacted with Malachite Green was measured at 650 nm according to the reaction time course. The amounts of released phosphate were quantified relative to a phosphate standard curve.
For testing the phosphatase activity of UppP, assays were performed in the presence of various substrates using Malachite Green assay. Since the intended substrate, Upp, was difficult to synthesize and purify (Ghachi et al. Id.), we used farnesyl pyrophosphate (Fpp) as a model substrate. It was previously reported that another E. coli undecaprenyl pyrophosphate phosphatase, PgpB, which has no sequence homology with UppP, catalyzed the dephosphorylation of Upp with a relatively low efficiency compared to diacylglycerol pyrophosphate and farnesyl pyrophosphate lipid substrates. In our activity assay test, Fpp was a suitable substrate for UppP.

B1: UppP: E. coli integral membrane enzyme undecaprenyl pyrophosphate phosphatase purified from the HmBRI/D94N fusion expression system (protein, UniProt P60932 1-273, looked up)
Undecaprenyl-diphosphatase: MSDMHSLLIAAILGVVEGLTEFLPVSSTGHMIIVGHLLGFEGDTAKTFEVVIQLGSILAVVVMFWRRLFGLIGIHFGRPLQHEGESKGRLTLIHILLGMIPAVVLGLLFHDTIKSLFNPINVMYALVVGGLLLIAAECLKPKEPRAPGLDDMTYRQAFMIGCFQCLALWPGFSRSGATISGGMLMGVSRYAASEFSFLLAVPMMMGATALDLYKSWGFLTSGDIPMFAVGFITAFVVALIAIKTFLQLIKRISFIPFAIYRFIVAAAVYVVFF
As to B1, the “time-dependent phosphatase activity (released phosphate)” value is “functional protein capable of releasing free phosphate”.
